Molecular target: Full-length human KLHL41 GST fusion protein (human) (UniProt O60662)
Assay: AlphaScreen or HTRF

Chain of UniProt O60662 (O60662 whole entry, the tested form may be a part): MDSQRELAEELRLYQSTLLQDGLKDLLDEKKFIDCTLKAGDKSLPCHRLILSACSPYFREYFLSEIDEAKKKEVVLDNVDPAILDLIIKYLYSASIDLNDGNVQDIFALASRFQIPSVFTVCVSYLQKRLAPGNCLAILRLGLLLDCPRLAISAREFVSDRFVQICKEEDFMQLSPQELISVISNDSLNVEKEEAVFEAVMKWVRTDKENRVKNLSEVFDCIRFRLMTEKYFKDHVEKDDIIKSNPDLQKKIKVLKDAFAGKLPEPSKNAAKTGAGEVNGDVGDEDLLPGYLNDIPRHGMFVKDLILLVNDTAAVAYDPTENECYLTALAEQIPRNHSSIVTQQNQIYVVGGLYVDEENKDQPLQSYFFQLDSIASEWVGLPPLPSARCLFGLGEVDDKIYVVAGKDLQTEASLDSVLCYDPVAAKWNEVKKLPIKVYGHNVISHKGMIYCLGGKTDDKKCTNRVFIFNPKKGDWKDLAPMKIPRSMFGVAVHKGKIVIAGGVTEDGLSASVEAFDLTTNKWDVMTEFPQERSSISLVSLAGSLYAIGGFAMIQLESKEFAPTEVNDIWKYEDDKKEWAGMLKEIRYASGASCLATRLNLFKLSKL

delta F% (HTRF, 10nM KLHL41 and 100nM NEB): 950%
Substance: Human NEB (aa 5647-5849) MBP-HA fusion protein (from UniProt P20929 5647-5849) (domain or fragment)

From article doi:10.1101/487454
